pIC50, pKd: −log10 of the molar value.
Assays:
[1] = target: HLA-A*24:02; experiment: IEDB peptide-MHC binding, purified MHC/competitive/radioactivity; filed as Kd, often an IC50 or EC50 that approximates it; ≥ and ≤ were set here for values at or beyond the usual limits of such assays; conditions: source organism: Dengue virus 2 Jamaica/1409/1983
[2] = target: HLA-B*58:01; experiment: as above
[3] = target: HLA-A*23:01; experiment: as above; conditions: source organism: Dengue virus 2 Jamaica/1409/1983
[4] = target: HLA-A*02:01; experiment: IEDB peptide-MHC binding, purified MHC/competitive/fluorescence; ≥ and ≤ were set here for values at or beyond the usual limits of such assays; conditions: source organism: Zaire ebolavirus
[5] = target: HLA-A*11:01; experiment: as above
[6] = target: HLA-A*02:01; experiment: IEDB peptide-MHC binding, purified MHC/direct/fluorescence; filed as Kd, often an IC50 or EC50 that approximates it; ≥ and ≤ were set here for values at or beyond the usual limits of such assays
[7] = target: HLA-A*02:12; experiment: as above; conditions: source organism: Ravn virus - Ravn, Kenya, 1987
[8] = target: HLA-A*69:01; experiment: as above
[9] = target: HLA-B*57:01; experiment: IEDB peptide-MHC binding, purified MHC/competitive/radioactivity; filed as Kd, often an IC50 or EC50 that approximates it; ≥ and ≤ were set here for values at or beyond the usual limits of such assays
[10] = target: HLA-B*15:17; experiment: IEDB peptide-MHC binding, purified MHC/direct/fluorescence; filed as Kd, often an IC50 or EC50 that approximates it; ≥ and ≤ were set here for values at or beyond the usual limits of such assays
[11] = target: HLA-B*58:01; experiment: as above
[12] = target: HLA-B*57:01; experiment: as above
[13] = target: HLA-A*32:01; experiment: IEDB peptide-MHC binding, purified MHC/competitive/radioactivity; filed as Kd, often an IC50 or EC50 that approximates it; ≥ and ≤ were set here for values at or beyond the usual limits of such assays; conditions: source organism: Dengue virus 2 Peru/IQT2913/1996
[14] = target: HLA-A*03:01; experiment: IEDB peptide-MHC binding, purified MHC/direct/fluorescence; filed as Kd, often an IC50 or EC50 that approximates it; ≥ and ≤ were set here for values at or beyond the usual limits of such assays
[15] = target: HLA-A*31:01; experiment: IEDB peptide-MHC binding, purified MHC/competitive/fluorescence; filed as Kd, often an IC50 or EC50 that approximates it; ≥ and ≤ were set here for values at or beyond the usual limits of such assays
[16] = target: HLA-A*68:02; experiment: as above; conditions: source organism: Toxoplasma gondii
[17] = target: HLA-A*11:01; experiment: IEDB peptide-MHC binding, purified MHC/direct/fluorescence; filed as Kd, often an IC50 or EC50 that approximates it; ≥ and ≤ were set here for values at or beyond the usual limits of such assays
[18] = target: HLA-A*31:01; experiment: as above; conditions: source organism: Giardia lamblia ATCC 50803
[19] = target: HLA-A*01:01; experiment: as above; conditions: source organism: Giardia lamblia ATCC 50803
[20] = target: HLA-B*48:01; experiment: as above; conditions: source organism: Giardia lamblia ATCC 50803
[21] = target: HLA-B*18:01; experiment: as above; conditions: source organism: Giardia lamblia ATCC 50803
[22] = target: HLA-B*40:01; experiment: as above; conditions: source organism: Giardia lamblia ATCC 50803
[23] = target: HLA-B*46:01; experiment: as above; conditions: source organism: Giardia lamblia ATCC 50803
[24] = target: HLA-B*07:02; experiment: as above; conditions: source organism: Giardia lamblia ATCC 50803
[25] = target: HLA-A*68:02; experiment: as above; conditions: source organism: Giardia lamblia ATCC 50803
[26] = target: HLA-B*15:01; experiment: as above; conditions: source organism: Giardia lamblia ATCC 50803
[27] = target: HLA-B*27:05; experiment: as above; conditions: source organism: Giardia lamblia ATCC 50803
[28] = source organism: Zaire ebolavirus
[29] = source organism: Marburg virus - Musoke, Kenya, 1980
[30] = source organism: Sudan ebolavirus
[31] = source organism: Dengue virus 1 Brazil/97-11/1997
[32] = source organism: Mammarenavirus lassaense
[33] = source organism: Coxiella burnetii
[34] = source organism: Dengue virus 2 Peru/IQT2913/1996
[35] = source organism: Mammarenavirus juninense
[36] = source organism: Salmonella enterica
[37] = source organism: Giardia lamblia ATCC 50803
[38] = source organism: Dengue virus 4 Philippines/H241/1956
[39] = source organism: Rickettsia massiliae

TWSIHAKHEW
pKd [1]: 7.40 | pKd ([2]; source organism: Dengue virus 2 Jamaica/1409/1983): 7.83 | pKd [3]: 5.71

AVSSGKNIK
pIC50 [4]: ≤ 3.79 | pIC50 [5, 28]: 4.26

ALKEAIEMV
pKd [6, 29]: 6.90 | pKd [7]: 8.40 | pKd [8, 29]: 5.75

DAASSRITK
pIC50 [5, 30]: ≤ 3.92

WSSFKKNGAI
pKd [9, 31]: 5.99 | pKd [2, 31]: 5.27

RTLGSFTWF
pKd [10, 32]: ≥ 9.00 | pKd [11, 32]: 7.86

HSGDSSCAF
pKd [10, 33]: 6.60 | pKd [12, 33]: ≤ 4.70 | pKd [11, 33]: 6.12

NPLPNQDND
pIC50 [5, 30]: ≤ 3.79

KTSLCLMMML
pKd ([9]; source organism: Dengue virus 3 China/80-2/1980): 7.73

KSYAQMWSL
pKd [9, 34]: 8.25 | pKd [13]: 8.20 | pKd [2, 34]: 8.40

KLNKFISPK
pKd [14, 35]: 6.65 | pKd [15, 35]: 7.59

HNFRAPAPV
pKd [16]: ≥ 10.00

NTIAGVAGL
pIC50 [4]: 4.50 | pIC50 [5, 28]: ≤ 3.84

IVYLIDCER
pKd [14, 36]: 6.03 | pKd [17, 36]: ≤ 4.70 | pKd ([15]; source organism: Salmonella enterica subsp. arizonae): 7.05

RIGGVLIFR
pKd [18]: 7.96 | pKd [6, 37]: ≤ 4.70 | pKd [12, 37]: ≤ 4.70 | pKd [14, 37]: 7.16 | pKd [19]: ≤ 4.70 | pKd [20]: ≤ 4.70 | pKd [21]: ≤ 4.70 | pKd [8, 37]: ≤ 4.70 | pKd [17, 37]: 7.49 | pKd [22]: ≤ 4.70 | pKd [23]: ≤ 4.70 | pKd [24]: ≤ 4.70 | pKd [25]: ≤ 4.70 | pKd [26]: ≤ 4.70 | pKd [11, 37]: 5.22 | pKd [27]: ≤ 5.30

KAAVEDEEFW
pKd ([2]; source organism: Dengue virus 3 Sri Lanka/1266/2000): 7.94

RLSAAIGKAW
pKd ([2]; source organism: Dengue virus 1 Singapore/S275/1990): 8.21

FTSVGKLVHQ
pKd [9, 31]: 5.62 | pKd [2, 31]: 5.87

TASGKLVTQW
pKd [9, 38]: 5.96 | pKd [2, 38]: 7.65

MTMPLSCTK
pKd [14, 32]: 6.21 | pKd [17, 32]: 8.64 | pKd ([15]; source organism: Lassa virus GA391): 6.17

KAMSTPFSL
pKd [10, 37]: 8.89 | pKd [12, 37]: 7.07 | pKd [11, 37]: 7.82

MGFGHRIYK
pKd [14, 39]: 8.43 | pKd [17, 39]: 8.49 | pKd ([15]; source organism: Dictyostelium discoideum): 8.84

From the Immune Epitope Database (IEDB)
